PMC3637437
“And” between values parts separate entries of the source, which are not always exact repeats. Equal values may be shown once.

Columns and labels:
Assay in all cases: native gel or EMSA; 1 ug of each purified consensus Env gp140 on a NativePAGE native gel, silver stained
[1] = molecular target: Consensus B Env gp140 trimer (bacteriophage)
[2] = molecular target: Consensus E Env gp140 trimer (bacteriophage)
[3] = molecular target: Con M Env gp140 trimer (HIV-1 group M consensus) (bacteriophage)
[4] = molecular target: Consensus A Env gp140 trimer (bacteriophage)
[5] = molecular target: Consensus C Env gp140 trimer (bacteriophage)

Question: Which stoichiometry N [1] does the source give for Consensus B Env gp140 trimer here?
Answer: 3

Question: Which stoichiometry N [2] does the source give for Consensus E Env gp140 trimer here?
Answer: 3 and 2

Question: How did the stoichiometry N [3] turn out when “Con M Env gp140 trimer (HIV-1 group M consensus)” was run?
Answer: 3 and 2

Question: Consensus A Env gp140 trimer was tested. Which stoichiometry N [4] did it give?
Answer: 3

Question: How did the stoichiometry N [5] turn out when Consensus C Env gp140 trimer was run?
Answer: 3 and 2
